From article doi:10.1101/2024.07.10.602929
Each block holds one substance with its values, some of them ahead of it.

Legend:
Experiment in all cases: biolayer interferometry, immobilised biotin-peptide
[1] = target: GABARAP (UniProt O95166); details: reference: unphosphorylated LIR1 peptide
[2] = target: LC3A (UniProt Q9H492); details: reference: unphosphorylated LIR1 peptide; sites Y1092
[3] = target: GABARAPL1 (UniProt Q9H0R8); details: reference: unphosphorylated LIR1 peptide; sites Y1092
[4] = target: LC3B (UniProt Q9GZQ8); details: reference: unphosphorylated LIR1 peptide; sites Y1092
[5] = target: GABARAPL2 (UniProt P60520); details: reference: unphosphorylated LIR1 peptide; sites Y1092

fold change ([1]; sites S1081): stronger
Substance: EGFR LIR1, 1076-1099 (from UniProt P00533) pS1081 LIR1 peptide

fold change ([1]; sites S1081,T1085): stronger
Substance: EGFR LIR1, 1076-1099 (from UniProt P00533) pS1081/pT1085 LIR1 peptide

fold change ([1]; sites T1085): stronger
Substance: EGFR LIR1, 1076-1099 (from UniProt P00533) pT1085 LIR1 peptide

binding against the reference [2]: same
binding against the reference ([1]; sites Y1092): same
binding against the reference [3]: same
binding against the reference [4]: same
binding against the reference [5]: same
Substance: EGFR LIR1, 1076-1099 (from UniProt P00533) pY1092 LIR1 peptide
